Consider 26 molecules from patent US20230037911A1 (SHANGHAI HENLIUS BIOTECH, published 2023).

For assay [1], the target named is T1, recombinant human TIGIT extra cellular domain (ECD) protein (human, UniProt Q495A1 22-138).
T1 construct: Purchased protein; it begins with the signal peptide; also called h-TIGIT ECD; human TIGIT ECD
T1 sequence: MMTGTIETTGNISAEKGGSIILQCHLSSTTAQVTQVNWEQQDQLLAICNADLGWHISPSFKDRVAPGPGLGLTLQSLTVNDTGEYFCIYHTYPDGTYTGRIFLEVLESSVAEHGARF
Put plainly: ELISA, VHH in supernatant on h-TIGIT ECD coated plates. On the technique in general: An ELISA detects its analyte on a solid surface through an enzyme-linked reagent.

The target in assay [2] is T1, recombinant human TIGIT extra cellular …. Put plainly: PVR blocking ELISA (PVR binding to h-TIGIT blocked by the clone); scatter of IC50 against EC50, nM per the legend.
The target in assay [3] is T2, human TIGIT stably expressed on cells (Jurkat; 293T) (human, UniProt Q495A1 22-244).
T2 construct: the expression vector's insert is not described further; also called h-TIGIT; human TIGIT transfected Jurkat cells
T2 sequence: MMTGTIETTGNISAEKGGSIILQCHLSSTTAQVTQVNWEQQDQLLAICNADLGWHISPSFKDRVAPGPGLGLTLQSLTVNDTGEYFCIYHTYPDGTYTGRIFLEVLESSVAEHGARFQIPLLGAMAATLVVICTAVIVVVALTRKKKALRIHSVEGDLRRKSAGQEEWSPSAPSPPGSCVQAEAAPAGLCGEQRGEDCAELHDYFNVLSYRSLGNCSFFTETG
As to the kind of experiment: whole cell binding on TIGIT stable cells (species not named in the legend, taken as human); scatter of EC50 against IC50, nM per the legend.

B1: 4H6 VHH (VHH)
VHH: QVQLVESGGGLATAGASLILSCAASGTIFRLNRMGWFRQAPGKERERVAATIWSGRRTHYADSVKGRFTISTDNAKKTVYLRMSSLKPEDTAVYYCNYRRITPWEASGNYWGQGTQVTVSS
notes: VHH in bacterial supernatant
As to B1, the binding result in assay [1] is given as “binds”.

B2: 4A11 VHH (VHH)
VHH: QVKLEESGGGEAQPGGSLRLSCTASGRPFSNYTMGWFRRAPGKEREFVGLAWPSPSTYVVDSVKGRFTISRDNAKNTIYLQMNSLKPEDTAIYYCAADYKSLTQSWLNAALDYWGQGTQVTVSS
notes: VHH in bacterial supernatant
Regarding B2, the binding result in assay [1] is on record as “binds”.

B3: 3H7 VHH (VHH)
VHH: QVKLEESGGGLVQAGGSLRLSCAASGSILSAGVMRWYRQAPGKQRELVASIALDGSTGYYIDSVKGRFTISRDNAKNIVYLDMRSLEPADTAVYLCNANIRTDMRSAPFDHWGHGTQVTVSS
notes: VHH in bacterial supernatant
As for B3, the binding result in assay [1] is given as “binds”.

B4: 4H9 VHH (VHH)
VHH: QVQLVESGGGAVQAGGSLRLSCTASGPIARSRSTGMGWFRQGPGKERESVAAISSDGRFTYYAASVKGRFTISKDNAKSAAFLQMNSLKPEDTAVYYCAARDSGSGYYSRAQWYDYWGQGTQVTVSS
notes: VHH in bacterial supernatant
On to B4, for which the binding result in assay [1] is “binds”.

B5: 4D5 VHH (VHH)
VHH: VDSGGGAVKAGDSLRLVCSAPGRTHGRAFNEYAMAWFRQGPGKERESVAAISSDGRFTYYAASVKGRFTISKDNAKSAAFLQMNSLKPEDTAVYYCAARDSGSGYYSRAQWYDYWGQGTQVTVSS
notes: VHH in bacterial supernatant
In the case of B5, in assay [1], the binding result is recorded as “binds”.

B6: 12H7 VHH (VHH)
VHH: QVQLVDSGGGLVQAGGSLRLSCKVSGNFLSVSDMSWYRQAPGMERDVVATVTEHGRTTYTDSVKGRFTISRDNAEHTTYLEMNNLKPEDTAVYFCKASDVFTDAGAHEAVLIRDYWGQGTQVTVSS
notes: VHH in bacterial supernatant
With B6, the binding result in assay [1] was “binds”.

B7: 1A10 VHH (VHH)
VHH: QVQLVESGGGVVQPGRSLRLSCAASGNSFSSYPMGWFRQAPGKERESVAAISSDGRFSYYADSVKGRFTISRDNSKNTLYLQMNSLRAEDTAVYYCACRDSGSGYYSRAQWYDYWGQGTLVTVSS
notes: VHH in bacterial supernatant
On to B7, for which the binding result in assay [2] and in assay [3] was “binds” throughout.

B8: 6E9 VHH (VHH)
VHH: QVQLVESGGGVVQPGRSLRLSCAASGPSRSSYPMGWFRQAPGKERESVAAISSDGKFTYYADSVKGRFTISRDNSKNTLYLQMNSLRAEDTAVYYCAARDSGSGYYSRANWYDYWGQGTLVTVSS
notes: VHH in bacterial supernatant
As to B8, the binding result in assay [2] and in assay [3] was “binds” in each case.

B9: 2D5 VHH (VHH)
VHH: QVQLVESGGGVVQPGRSLRLSCAASGPSFSSSPMGWFRQAPGKERESVAAISWDGRFTYYADSVKGRFTISRDNSKNTLYLQMNSLRAEDTAVYYCAARDSGSGYYSRAQWYVYWGQGTLVTVSS
notes: VHH in bacterial supernatant
Take B9: the binding result in assay [2] and in assay [3] was “binds” each time.

B10: 2C5 VHH (VHH)
VHH: QVQLVESGGGVVQPGRSLRLSCAASGPSFSTYPMGWFRQAPGKERESVAAISSQGRFTYYADSVKGRFTISRDNSKNTLYLQMNSLRAEDTAVYYCAARDSGSGYYSRAQWYDYWGQGTLVTVSS
notes: VHH in bacterial supernatant
B10: the binding result in assay [2] and in assay [3] was “binds” throughout.

B11: 6D12 VHH (VHH)
VHH: QVQLVESGGGVVQPGRSLRLSCAASGPSFSTYPMGWFRQAPGKERESVAAISSDGVFTYYADSVKGRFTISRDNSKNTLYLQMNSLRAEDTAVYYCAARDSGSGYYSREQWYDYWGQGTLVTVSS
notes: VHH in bacterial supernatant
Take B11: the binding result in assay [2] and in assay [3] was “binds” throughout.

B12: 5B5 VHH (VHH)
VHH: QVQLVESGGGVVQPGRSLRLSCAASGPSFSSYPMGWFRQAPGKERESVAAISSDTRFTYYADSVKGRFTISRDNSKNTLYLQMNSLRAEDTAVYYCAARDSGSGYYSRAQWYDRWGQGTLVTVSS
notes: VHH in bacterial supernatant
As to B12, the binding result in assay [2] and in assay [3] was “binds” each time.

B13: 2A5 VHH (VHH)
VHH: QVQLVESGGGVVQPGRSLRLSCAASGPSFSSYPMGWFRQAPGKERESVAAISSVGRFTYYADSVKGRFTISRDNSKNTLYLQMNSLRAEDTAVYYCAARDSGSGYYSRWQWYDYWGQGTLVTVSS
notes: VHH in bacterial supernatant
Turning to B13, the binding result in assay [2] and in assay [3] was “binds” throughout.

B14: 2A6 VHH (VHH)
VHH: QVQLVESGGGVVQPGRSLRLSCAASGPSFSLYPMGWFRQAPGKERESVAAISSDRRFTYYADSVKGRFTISRDNSKNTLYLQMNSLRAEDTAVYYCAARDSGSGYYSRAQWYDYWGQGTLVTVSS
notes: VHH in bacterial supernatant
As for B14, the binding result in assay [2] and in assay [3] was “binds” throughout.

B15: 7B11 VHH (VHH)
VHH: QVQLVESGGGVVQPGRSLRLSCAASGPSFLIYPMGWFRQAPGKERESVAAISSDGRFWYYADSVKGRFTISRDNSKNTLYLQMNSLRAEDTAVYYCAARDSGSGYYSRVQWYDYWGQGTLVTVSS
notes: VHH in bacterial supernatant
Take B15: the binding result in assay [2] and in assay [3] was “binds” each time.

B16: 1D11 VHH (VHH)
VHH: QVQLVESGGGVVQPGRSLRLSCAASGPSFSSSPMGWFRQAPGKERESVAAISSMGRFTYYADSVKGRFTISRDNSKNTLYLQMNSLRAEDTAVYYCAARDSGSGYYSRAQWYDYWGQGTLVTVSS
notes: VHH in bacterial supernatant
Regarding B16, the binding result in assay [2] and in assay [3] was “binds” throughout.

B17: 5E8 VHH (VHH)
VHH: QVQLVESGGGVVQPGRSLRLSCAASGPSFSSYPMGWFRQAPGKERESVAAQSSDGRFTYYADSVKGRFTISRDNSKNTLYLQMNSLRAEDTAVYYCAARDSGSGYYSRAQWYDYWGQGTLVTVSS
notes: VHH in bacterial supernatant
Turning to B17, the binding result in assay [2] and in assay [3] was “binds” throughout.

B18: 6D8 VHH (VHH)
VHH: QVQLVESGGGVVQPGRSLRLSCAASGPSFSSKPMGWFRQAPGKERESVAARSSDGRFTYYADSVKGRFTISRDNSKNTLYLQMNSLRAEDTAVYYCAARDSGSGRYSRAQWYDYWGQGTLVTVSS
notes: VHH in bacterial supernatant
For B18, the binding result in assay [2] and in assay [3] was “binds” each time.

B19: 5G10 VHH (VHH)
VHH: QVQLVESGGGVVQPGRSLRLSCAASGPRFSSYPMGWFRQAPGKERESVAAISSDGRFTYYADSVKGRFTISRDNSKNTLYLQMNSLRAEDTAVYYCAARDSGSGYYSRAQWYDGWGQGTLVTVSS
notes: VHH in bacterial supernatant
As for B19, the binding result in assay [2] and in assay [3] was “binds” in each case.

B20: 1C7 VHH (VHH)
VHH: QVQLVESGGGVVQPGRSLRLSCAASGPSFSSYPMGWFRQAPGKERESVAAISSRGRFTYYADSVKGRFTISRDNSKNTLYLQMNSLRAEDTAVYYCAARGSGSGYYSRAQWYDYWGQGTLVTVSS
notes: VHH in bacterial supernatant
As for B20, the binding result in assay [2] and in assay [3] was “binds” throughout.

B21: 6B11 VHH (VHH)
VHH: QVQLVESGGGVVQPGRSLRLSCAASGPSFPSYPMGWFRQAPGKERESVAAISSRGRFTYYADSVKGRFTISRDNSKNTLYLQMNSLRAEDTAVYYCAARDSGSGYYSRLQWYDYWGQGTLVTVSS
notes: VHH in bacterial supernatant
For B21, the binding result in assay [2] and in assay [3] was “binds” each time.

B22: 4D11 VHH (VHH)
VHH: QVQLQESGGGLVQPGGSLRLSCAASGSISSINAMGWYRLAPGKHREFVADITNSGSTNYAASVKGRFNISRDNAKDTVYLQMNSLKFEDTAVYYCTARRSTWYISSGRGTQVTVSS
notes: VHH in bacterial supernatant
For B22, the binding result in assay [1] is “binds”.

B23: 4C6 VHH (VHH)
VHH: QVQLVESGGGLVQAGGSLRLACAASGRTFSSYPMGWFRQGPGKERESVAAISSDGRFTYYAASVKGRFTISKDNAKSAAFLQMNSLKPEDTAVYRCAVDPTGWGTIEADFRSWGQGTQVTVSS
notes: VHH in bacterial supernatant
In the case of B23, in assay [1], the binding result is on record as “binds”.

B24: 4B5 VHH (VHH)
VHH: QVKLEESGGRSVLAGGSLRLRCAGTPRTFSTFHIGWFRQAPGKEREFVAAFNWSGGRTYYADSVKGRFTISRNNGKNMVYLQMTSLTPEDTGLYYCAAARDRGLHDGTTSDSYLEGSHEYEYWGQGTQVTVSS
notes: VHH in bacterial supernatant
With B24, the binding result in assay [1] is on record as “binds”.

B25: 4E5 VHH (VHH)
VHH: QVQLVDSGGGVVEVGASLTLSCETSGLTSSDIAVGWFRQGPGKERESVAAISSDGRFTYYAASVKGRFTISKDNAKSAAFLQMNSLKPEDTAVYYCAARDSGSGYYSRAQWYDYWGQGTQVTVSS
notes: VHH in bacterial supernatant
For B25, in assay [1], the binding result is on record as “binds”.

B26: 4C5 VHH (VHH)
VHH: QVQLVDSGGGLVQAGGSLRLSCAVSGRSVSTYFVGWFRQAPGKEREFVAAIDRGSTVTRYDDSVKGRFTISRDNAKDTVYLQMNSLKPEDTAVYYCAAKAITRNFIATNDYDYWGQGTQVTVSS
notes: VHH in bacterial supernatant
Take B26: in assay [1], the binding result is reported as “binds”.
